# From publication PMC12362244, “Fidelity, specialization, and evolution of Paramecium PolX DNA polymerases involved in programmed double-strand break DNA repair” (Nucleic Acids Research, 2025)
# Numbering of substitutions follows the chain as printed. Numbers in names are those of the source.
# B1: Polλxt (Homo sapiens; C543A/DEL464-472/INS464KGET) (protein)
# chain: AQPSSQKATNHNLHITEKLEVLAKAYSVQGDKWRALGYAKAINALKSFHKPVTSYQEACSIPGIGKRMAEKIIEILESGHLRKLDHISESVPVLELFSNIWGAGTKTAQMWYQQGFRSLEDIRSQASLTTQQAIGLKHYSDFLERMPREEATEIEQTVQKAAQAFNSGLLCVACGSYRRGKATCGDVDVLITHPDGRSHRGIFSRLLDSLRQEGFLTDDLVSKGETYLGVCRLPGPGRRHRRLDIIVVPYSEFACALLYFTGSAHFNRSMRALAKTKGMSLSEHALSTAVVRNTHGAKVGPGRVLPTPTEKDVFRLLGLPYREPAERDW
# notes: Δ1-241; Loop1 residues 464-472 replaced by KGET of Polβ; cleavable N-terminal 14-His tag; E. coli
# B2: Polλxt (Homo sapiens; C543A/DEL464-472/H530Y/I492R/INS464KGET/S528N) (protein)
# chain: B1 chain with I246R, S282N, H284Y
# notes: as for B1
# B3: Polλxt (Homo sapiens; C543A/DEL464-472/I492K/INS464KGET) (protein)
# chain: B1 chain with I246K
# notes: as for B1
# B4: Polλxt (Homo sapiens; C543A/DEL464-472/E529D/I492K/INS464KGET) (protein)
# chain: B1 chain with I246K, E283D
# notes: as for B1
# Tests used:
# Experiment in all cases: steady-state single-nucleotide gap-filling, FAM-primer urea-PAGE, Michaelis-Menten fit
# Conditions in all cases: 1 µM gap-filling DNA (continuous template), 5 nM enzyme, 5 mM MgCl2, pH 7.5, 27°C
# [1] = substrate: Nc1nc2c(ncn2[C@H]2C[C@H](O)[C@@H](COP(=O)(O)OP(=O)(O)OP(=O)(O)O)O2)c(=O)[nH]1; format: biochemical, Homo sapiens
# Text: steady-state single-nucleotide gap-filling, FAM-primer urea-PAGE, Michaelis-Menten fit on Polλxt | all mutants underwent steady-state characterization in gap-filling context (Fig. 4B and C)
# [2] = substrate: Nc1nc2c(ncn2[C@H]2C[C@H](O)[C@@H](COP(=O)(O)OP(=O)(O)OP(=O)(O)O)O2)c(=O)[nH]1; format: biochemical, Homo sapiens; remark: listed apart in the source
# Text: steady-state single-nucleotide gap-filling, FAM-primer urea-PAGE, Michaelis-Menten fit on Polλxt | despite an almost normal KM in the […] range
# [3] = substrate: Nc1nc2c(ncn2[C@H]2C[C@H](O)[C@@H](COP(=O)(O)OP(=O)(O)OP(=O)(O)O)O2)c(=O)[nH]1; format: biochemical, Homo sapiens; remark: listed apart in the source
# [4] = substrate: Nc1nc2c(ncn2[C@H]2C[C@H](O)[C@@H](COP(=O)(O)OP(=O)(O)OP(=O)(O)O)O2)c(=O)[nH]1; format: biochemical, Paramecium
protein,measurement,setting,value
B1,Km,[1],1893 (949.4 - 4602.0) nM
B2,Km,[2],849.9 (587.8 - 1277.0) nM
B3,Km,[3],494.7 (237.7 - 937.3) nM
B4,Km,[4],399.3 (247.1 - 607.0) nM
